Results: patent US20110091994A1, “Methods for Screening Compounds for Treating and/or Preventing an Hepatitis C Virus Infection” (priority 2008, published 2011)
Where two headings read alike, the source gives them in different places.

Key:
[1] = biological target: T1, HCV ORFs (Gal4-DB fusions) (Hepatitis C virus genotype 1b, UniProt Q9WMX2); format: binding, HCV genotype 1b, isolate con1; details: human protein as prey
T1 construct: expressed in transfected cells; host or cells: Saccharomyces cerevisiae MAV203 (IMAP1) / AH109 (IMAP2)

[2] = system: HCV ORFs (Gal4-DB fusions); format: binding, HCV genotype 1b, isolate con1; details: human protein listed by gene symbol; the value names the HCV protein it interacts with
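Further: yeast two-hybrid screens using HCV genotype 1b proteins fused to Gal4-DB as baits against prey cDNA libraries from human spleen and foetal brain, IMAP1 via transformation and IMAP2 via mating.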

Molecule	IMAP Y2H IMAP2 (number of IST) ([1]; HCV protein NS3 as bait)	Interaction with viral protein [2]	IMAP Y2H IMAP2 (number of IST) ([1]; HCV protein CORE as bait)	also measured
BIN1 (protein, UniProt O00499 2-593, looked up) Myc box-dependent-interacting …: AEMGSKGVTAGKIASNVQKKLTRAQEKVLQKLGKADETKDEQFEQCVQNFNKQLTEGTRLQKDLRTYLASVKAMHEASKKLNECLQEVYEPDWPGRDEANKIAENNDLLWMDYHQKLVDQALLTMDTYLGQFPDIKSRIAKRGRKLVDYDSARHHYESLQTAKKKDEAKIAKPVSLLEKAAPQWCQGKLQAHLVAQTNLLRNQAEEELIKAQKVFEEMNVDLQEELPSLWNSRVGFYVNTFQSIAGLEENFHKEMSKLNQNLNDVLVGLEKQHGSNTFTVKAQPSDNAPAKGNKSPSPPDGSPAATPEIRVNHEPEPAGGATPGATLPKSPSQLRKGPPVPPPPKHTPSKEVKQEQILSLFEDTFVPEISVTTPSQFEAPGPFSEQASLLDLDFDPLPPVTSPVKAPTPSGQSIPWDLWEPTESPAGSLPSGEPSAAEGTFAVSWPSQTAEPGPAQPAEASEVAGGTQPAAGAQEPGETAASEAASSSLPAVVVETFPATVNGTVEGGSGAGRLDLPPGFMFKVQAQHDYTATDTDELQLKAGDVVLVIPFQNPEEQDEGWLMGVKESDWNQHKELEKCRGVFPENFTERVP				IMAP Y2H IMAP1 (number of IST) ([1]; HCV protein NS5A as bait): 16; IMAP Y2H IMAP2 (number of IST) ([1]; HCV protein NS5A as bait): 14
EEF1A1 (protein, UniProt P68104 2-462, looked up) Elongation factor 1-alpha 1: GKEKTHINIVVIGHVDSGKSTTTGHLIYKCGGIDKRTIEKFEKEAAEMGKGSFKYAWVLDKLKAERERGITIDISLWKFETSKYYVTIIDAPGHRDFIKNMITGTSQADCAVLIVAAGVGEFEAGISKNGQTREHALLAYTLGVKQLIVGVNKMDSTEPPYSQKRYEEIVKEVSTYIKKIGYNPDTVAFVPISGWNGDNMLEPSANMPWFKGWKVTRKDGNASGTTLLEALDCILPPTRPTDKPLRLPLQDVYKIGGIGTVPVGRVETGVLKPGMVVTFAPVNVTTEVKSVEMHHEALSEALPGDNVGFNVKNVSVKDVRRGNVAGDSKNDPPMEAAGFTAQVIILNHPGQISAGYAPVLDCHTAHIACKFAELKEKIDRRSGKKLEDGPKFLKSGDAAIVDMVPGKPMCVESFSDYPPLGRFAVRDMRQTVAVGVIKAVDKKAAGAGKVTKSAQKAQKAK	1	NS3		
DLAT (protein, UniProt P10515 87-647, looked up) Dihydrolipoyllysine-residue …: SLPPHQKVPLPSLSPTMQAGTIARWEKKEGDKINEGDLIAEVETDKATVGFESLEECYMAKILVAEGTRDVPIGAIICITVGKPEDIEAFKNYTLDSSAAPTPQAAPAPTPAATASPPTPSAQAPGSSYPPHMQVLLPALSPTMTMGTVQRWEKKVGEKLSEGDLLAEIETDKATIGFEVQEEGYLAKILVPEGTRDVPLGTPLCIIVEKEADISAFADYRPTEVTDLKPQVPPPTPPPVAAVPPTPQPLAPTPSAPCPATPAGPKGRVFVSPLAKKLAVEKGIDLTQVKGTGPDGRITKKDIDSFVPSKVAPAPAAVVPPTGPGMAPVPTGVFTDIPISNIRRVIAQRLMQSKQTIPHYYLSIDVNMGEVLLVRKELNKILEGRSKISVNDFIIKASALACLKVPEANSSWMDTVIRQNHVVDVSVAVSTPAGLITPIVFNAHIKGVETIANDVVSLATKAREGKLQPHEFQGGTFTISNLGMFGIKNFSAIINPPQACILAIGASEDKLVPADNEKGFDVASMMSVTLSCDHRVVDGAVGAQWLAEFRKYLEKPITMLL	8	NS3		
UBASH3A (protein, UniProt P57075 1-661, looked up) Ubiquitin-associated and SH3 …: MAAGETQLYAKVSNKLKSRSSPSLLEPLLAMGFPVHTALKALAATGRKTAEEALAWLHDHCNDPSLDDPIPQEYALFLCPTGPLLEKLQEFWRESKRQCAKNRAHEVFPHVTLCDFFTCEDQKVECLYEALKRAGDRLLGSFPTAVPLALHSSISYLGFFVSGSPADVIREFAMTFATEASLLAGTSVSRFWIFSQVPGHGPNLRLSNLTRASFVSHYILQKYCSVKPCTKQLHLTLAHKFYPHHQRTLEQLARAIPLGHSCQWTAALYSRDMRFVHYQTLRALFQYKPQNVDELTLSPGDYIFVDPTQQDEASEGWVIGISQRTGCRGFLPENYTDRASESDTWVKHRMYTFSLATDLNSRKDGEASSRCSGEFLPQTARSLSSLQALQATVARKSVLVVRHGERVDQIFGKAWLQQCSTPDGKYYRPDLNFPCSLPRRSRGIKDFENDPPLSSCGIFQSRIAGDALLDSGIRISSVFASPALRCVQTAKLILEELKLEKKIKIRVEPGIFEWTKWEAGKTTPTLMSLEELKEANFNIDTDYRPAFPLSALMPAESYQEYMDRCTASMVQIVNTCPQDTGVILIVSHGSTLDSCTRPLLGLPPRECGDFAQLVRKIPSLGMCFCEENKEEGKWELVNPPVKTLTHGANAAFNWRNWISGN				IMAP Y2H IMAP2 (number of IST) ([1]; HCV protein NS5A as bait): 1
DDX3Y (protein, UniProt O15523 2-660, looked up) ATP-dependent RNA helicase …: SHVVVKNDPELDQQLANLDLNSEKQSGGASTASKGRYIPPHLRNREASKGFHDKDSSGWSCSKDKDAYSSFGSRDSRGKPGYFSERGSGSRGRFDDRGRSDYDGIGNRERPGFGRFERSGHSRWCDKSVEDDWSKPLPPSERLEQELFSGGNTGINFEKYDDIPVEATGSNCPPHIENFSDIDMGEIIMGNIELTRYTRPTPVQKHAIPIIKGKRDLMACAQTGSGKTAAFLLPILSQIYTDGPGEALKAVKENGRYGRRKQYPISLVLAPTRELAVQIYEEARKFSYRSRVRPCVVYGGADIGQQIRDLERGCHLLVATPGRLVDMMERGKIGLDFCKYLVLDEADRMLDMGFEPQIRRIVEQDTMPPKGVRHTMMFSATFPKEIQMLARDFLDEYIFLAVGRVGSTSENITQKVVWVEDLDKRSFLLDILGATGSDSLTLVFVETKKGADSLEDFLYHEGYACTSIHGDRSQRDREEALHQFRSGKSPILVATAVAARGLDISNVRHVINFDLPSDIEEYVHRIGRTGRVGNLGLATSFFNEKNMNITKDLLDLLVEAKQEVPSWLENMAYEHHYKGGSRGRSKSNRFSGGFGARDYRQSSGSSSSGFGASRGSSSRSGGGGYGNSRGFGGGGYGGFYNSDGYGGNYNSQGVDWWGN		CORE	3	
NAPL1L2 (protein, UniProt Q9ULW6 1-460, looked up) Nucleosome assembly protein …: MAESENRKELSESSQEEAGNQIMVEGLGEHLERGEDAAAGLGDDGKCGEEAAAGLGEEGENGEDTAAGSGEDGKKGGDTDEDSEADRPKGLIGYVLDTDFVESLPVKVKYRVLALKKLQTRAANLESKFLREFHDIERKFAEMYQPLLEKRRQIINAIYEPTEEECEYKSDSEDCDDEEMCHEEMYGNEEGMVHEYVDEDDGYEDYYYDYAVEEEEEEEEEDDIEATGEENKEEEDPKGIPDFWLTVLKNVDTLTPLIKKYDEPILKLLTDIKVKLSDPGEPLSFTLEFHFKPNEYFKNELLTKTYVLKSKLAYYDPHPYRGTAIEYSTGCEIDWNEGKNVTLKTIKKKQKHRIWGTIRTVTEDFPKDSFFNFFSPHGITSNGRDGNDDFLLGHNLRTYIIPRSVLFFSGDALESQQEGVVREVNDAIYDKIIYDNWMAAIEEVKACCKNLEALVEDIDR	1			
FAM65A (protein, UniProt Q6ZS17 1-1223, looked up) Rho family-interacting cell …: MMSLSVRPQRRLLSARVNRSQSFAGVLGSHERGPSLSFRSFPVFSPPGPPRKPPALSRVSRMFSVAHPAAKVPQPERLDLVYTALKRGLTAYLEVHQQEQEKLQGQIRESKRNSRLGFLYDLDKQVKSIERFLRRLEFHASKIDELYEAYCVQRRLRDGAYNMVRAYTTGSPGSREARDSLAEATRGHREYTESMCLLESELEAQLGEFHLRMKGLAGFARLCVGDQYEICMKYGRQRWKLRGRIEGSGKQVWDSEETIFLPLLTEFLSIKVTELKGLANHVVVGSVSCETKDLFAALPQVVAVDINDLGTIKLSLEVTWSPFDKDDQPSAASSVNKASTVTKRFSTYSQSPPDTPSLREQAFYNMLRRQEELENGTAWSLSSESSDDSSSPQLSGTARHSPAPRPLVQQPEPLPIQVAFRRPETPSSGPLDEEGAVAPVLANGHAPYSRTLSHISEASVDAALAEASVEAVGPESLAWGPSPPTHPAPTHGEHPSPVPPALDPGHSATSSTLGTTGSVPTSTDPAPSAHLDSVHKSTDSGPSELPGPTHTTTGSTYSAITTTHSAPSPLTHTTTGSTHKPIISTLTTTGPTLNIIGPVQTTTSPTHTMPSPTHTTASPTHTSTSPTHTPTSPTHKTSMSPPTTTSPTPSGMGLVQTATSPTHPTTSPTHPTTSPILINVSPSTSLELATLSSPSKHSDPTLPGTDSLPCSPPVSNSYTQADPMAPRTPHPSPAHSSRKPLTSPAPDPSESTVQSLSPTPSPPTPAPQHSDLCLAMAVQTPVPTAAGGSGDRSLEEALGALMAALDDYRGQFPELQGLEQEVTRLESLLMQRQGLTRSRASSLSITVEHALESFSFLNEDEDEDNDVPGDRPPSSPEAGAEDSIDSPSARPLSTGCPALDAALVRHLYHCSRLLLKLGTFGPLRCQEAWALERLLREARVLEAVCEFSRRWEIPASSAQEVVQFSASRPGFLTFWDQCTERLSCFLCPVERVLLTFCNQYGARLSLRQPGLAEAVCVKFLEDALGQKLPRRPQPGPGEQLTVFQFWSFVETLDSPTMEAYVTETAEEVLLVRNLNSDDQAVVLKALRLAPEGRLRRDGLRALSSLLVHGNNKVMAAVSTQLRSLSLGPTFRERALLCFLDQLEDEDVQTRVAGCLALGCIKAPEGIEPLVYLCQTDTEAVREAARQSLQQCGEEGQSAHRRLEESLDALPRIFGPGSMASTAF	1	NS3		
DDX3X (protein, UniProt O00571 2-662, looked up) ATP-dependent RNA helicase …: SHVAVENALGLDQQFAGLDLNSSDNQSGGSTASKGRYIPPHLRNREATKGFYDKDSSGWSSSKDKDAYSSFGSRSDSRGKSSFFSDRGSGSRGRFDDRGRSDYDGIGSRGDRSGFGKFERGGNSRWCDKSDEDDWSKPLPPSERLEQELFSGGNTGINFEKYDDIPVEATGNNCPPHIESFSDVEMGEIIMGNIELTRYTRPTPVQKHAIPIIKEKRDLMACAQTGSGKTAAFLLPILSQIYSDGPGEALRAMKENGRYGRRKQYPISLVLAPTRELAVQIYEEARKFSYRSRVRPCVVYGGADIGQQIRDLERGCHLLVATPGRLVDMMERGKIGLDFCKYLVLDEADRMLDMGFEPQIRRIVEQDTMPPKGVRHTMMFSATFPKEIQMLARDFLDEYIFLAVGRVGSTSENITQKVVWVEESDKRSFLLDLLNATGKDSLTLVFVETKKGADSLEDFLYHEGYACTSIHGDRSQRDREEALHQFRSGKSPILVATAVAARGLDISNVKHVINFDLPSDIEEYVHRIGRTGRVGNLGLATSFFNERNINITKDLLDLLVEAKQEVPSWLENMAYEHHYKGSSRGRSKSSRFSGGFGARDYRQSSGASSSSFSSSRASSSRSGGGGHGSSRGFGGGGYGGFYNSDGYGGNYNSQGVDWWGN			1	
EGFL7 (protein, UniProt Q9UHF1 24-273, looked up) Epidermal growth factor-like …: YRPGRRVCAVRAHGDPVSESFVQRVYQPFLTTCDGHRACSTYRTIYRTAYRRSPGLAPARPRYACCPGWKRTSGLPGACGAAICQPPCRNGGSCVQPGRCRCPAGWRGDTCQSDVDECSARRGGCPQRCVNTAGSYWCQCWEGHSLSADGTLCVPKGGPPRVAPNPTGVDSAMKEEVQRLQSRVDLLEEKLQLVLAPLHSLASQALEHGLPDPGSLLVHSFQQLGRIDSLSEQISFLEEQLGSCSCKKDS		CORE	1	
